Laboratory results reported in patent publication US7514534 (DYAX, dated 2009).

T1: MMP-26 catalytic domain, tagged with hexa-histidine (human, UniProt Q9NRE1 90-261)
T1 construct: the forward primer adds Met-Ala before it; also called MMP-26 target protein; Matrilysin-2; not shown: Also any N-terminal residues added by the forward primer (Met-Ala according to our card; the primers were not visible to me)
T1 sequence: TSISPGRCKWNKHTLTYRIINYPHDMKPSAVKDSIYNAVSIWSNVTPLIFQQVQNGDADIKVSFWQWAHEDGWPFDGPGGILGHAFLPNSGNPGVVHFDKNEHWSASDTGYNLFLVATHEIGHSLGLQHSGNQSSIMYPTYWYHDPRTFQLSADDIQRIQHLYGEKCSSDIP


Tests used:
[1] = target: T1, MMP-26 catalytic domain, tagged with …; assay: bead-based ELISA, MMP-26 on nickel beads, IgG4 culture supernatant
Protocol: Reformatted and expressed full-length MMP-26 binding IgG4 antibodies were tested for specificity in a bead-based ELISA. Approximately 1.25 μg of MMP-26 protein was bound to nickel-coated magnetic beads (Novagen) which had been pre-blocked with phosphate buffered saline containing 5% (w/v) nonfat dry milk and 0.05% (v/v) Tween-20. The beads were washed in phosphate buffered saline containing 0.05% (v/v) Tween-20 (PBS-T) and 100 uls of unpurified cell culture supernatant containing transiently produced MMP-26-binding antibodies was added and incubated on a rotator for sixty minutes. The beads were washed with PBS-T and MMP-26-binding antibodies were detected with an HRP-conjugated anti-human secondary antibody. Data is expressed in fold over background where background consists of beads, blocking agent, and culture supernatant containing target antibody (Table 2; in this table, Results shown as fold over background (F>B) where background consists of beads, blocking agent, and culture supernatant).

MMP-3 = target: T2, MMP-3 (UniProt P08254 100-477, limits assumed); assay: cross-reactivity ELISA on coated MMP
T2 construct: also called stromelysin-1
T2 sequence (P08254 100-477 limits assumed): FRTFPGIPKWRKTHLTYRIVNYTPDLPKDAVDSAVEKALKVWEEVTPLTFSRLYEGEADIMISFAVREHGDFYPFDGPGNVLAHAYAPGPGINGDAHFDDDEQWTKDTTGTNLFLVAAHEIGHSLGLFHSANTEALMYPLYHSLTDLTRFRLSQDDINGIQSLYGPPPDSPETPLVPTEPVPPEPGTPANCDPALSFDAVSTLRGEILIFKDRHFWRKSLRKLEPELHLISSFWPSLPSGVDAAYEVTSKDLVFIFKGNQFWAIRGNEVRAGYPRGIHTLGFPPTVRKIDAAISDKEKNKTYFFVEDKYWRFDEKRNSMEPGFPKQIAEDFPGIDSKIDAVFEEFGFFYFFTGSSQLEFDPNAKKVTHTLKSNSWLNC
Protocol: (§1) Twenty-one of the reformatted MMP-26 antibodies were tested for MMP cross reactivity by ELISA analysis. MMP-3, MMP-7, MMP-9, and MMP-12 were coated onto Immulon 2 HB 96-well plates at a concentration of 1 μg/ml for 1 hour at 37° C. The plates were blocked with PBS-T containing 5% (w/v) nonfat dry milk for thirty minutes and subsequently washed with PBS-T. Each antibody was tested for reactivity to all of the above mentioned MMPs at a concentration of 2 μg/ml with an incubation time of 1 hour. Bound antibody was detected with an HRP-conjugated anti-human secondary antibody (Table 3, NT=not tested.).

MMP-9 = target: T3, MMP-9 (UniProt P14780 107-707, limits assumed); assay: cross-reactivity ELISA on coated MMP
T3 construct: also called gelatinase
T3 sequence (P14780 107-707 limits assumed): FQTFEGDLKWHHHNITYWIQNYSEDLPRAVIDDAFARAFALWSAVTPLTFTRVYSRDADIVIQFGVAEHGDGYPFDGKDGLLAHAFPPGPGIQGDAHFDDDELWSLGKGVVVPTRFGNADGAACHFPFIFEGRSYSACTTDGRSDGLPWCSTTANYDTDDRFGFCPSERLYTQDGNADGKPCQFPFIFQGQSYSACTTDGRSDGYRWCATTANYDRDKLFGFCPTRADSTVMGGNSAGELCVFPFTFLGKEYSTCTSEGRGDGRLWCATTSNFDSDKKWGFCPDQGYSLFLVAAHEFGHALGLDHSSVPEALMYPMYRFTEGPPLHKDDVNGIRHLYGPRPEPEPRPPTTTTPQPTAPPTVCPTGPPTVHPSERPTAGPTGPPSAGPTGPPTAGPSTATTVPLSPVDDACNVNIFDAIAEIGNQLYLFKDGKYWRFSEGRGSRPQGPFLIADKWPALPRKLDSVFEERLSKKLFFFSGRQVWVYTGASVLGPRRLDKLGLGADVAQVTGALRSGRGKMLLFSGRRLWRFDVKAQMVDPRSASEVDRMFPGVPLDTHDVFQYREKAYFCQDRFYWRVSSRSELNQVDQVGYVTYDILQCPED
Protocol: as §1

| Binder | F > B (fold over background) [1] [fold over background] | binding result (MMP-3) | binding result (MMP-9) |
| --- | --- | --- | --- |
| A11 (antibody, human IgG4, V domains shown, whole human IgG4; the VHC entry has one unread residue (printed z, K75z)) VH: EVQLLESGGGLVQPGGSLRLSCAASGFTFSWYTMMWVRQAPGKGLEWVSRISPSGGHTLYADSVKGRFTISRDNSZNTLYLQMNSLRAEDTAVYYCARDTWDDYYDSSGYYNDFDYWGQGTLVTVSS VL: QSALTQPPSVSLAPGQTARITCGGNNIGTKSVHWYQQKPGQAPVLVVYDDSDRPSGIPERFSGSNSGNTATLTISRVEAGDEADYYCQVWDSGSDHQVFGGGTKLTVLG | 1.7 | no binding (tested: 2 µg/ml) | no binding (tested: 2 µg/ml) |
| A1-orig (antibody, human IgG4, V domains shown, whole human IgG4) VH: EVQLLESGGGLVQPGGSLRLSCAASGFTFSYYRMSWVRQAPGKGLEWVSSIGPSGGDTLYADSVKGRFTISRDNSKNTLYLQMNSLRAEDTAVYYCARSFSSGPYYFDYWGQGTLVTVSS VL: QSVLTQPPSASGTPGQRVIISCSGSSSNIGSHYVHWYQQVPGTAPKLLIYRNGQRPSGVPDRFSGFKSGTSASLAISGLRSEDEANYYCATWDDSVLFGGGTTLTVLG |  | no binding (tested: 2 µg/ml) |  |
| A01 (antibody, human IgG4, V domains shown, whole human IgG4) VH: EVQLLESGGGLVQPGGSLRLSCAASGFTFSAYNMFWVRQAPGKGLEWVSGIGSSGGIAPYADSVKGRFTISRDNSKNTLYLQMNSLRAEDTAVYYCARAAYEVENWFDPWGQGTLVTVSS VL: DIQMTQSPGTLSLSPGERATLSCRASQIVRSTYLAWYQQKPGQAPRLLIYGTSSRATGVPDRFSGSGSGTDFTLTISGLEPEDFALYYCQRYGDSPPITFGQGTRLEITR | 3.3 | no binding (tested: 2 µg/ml) | no binding (tested: 2 µg/ml) |
| B10 (antibody, human IgG4, V domains shown, whole human IgG4) VH: EVQLLESGGGLVQPGGSLRLSCAASGFTFSSYAMMWVRQAPGKGLEWVSWIVPSGGTTFYADSVKGRFTISRDNSKNTLYLQMNSLRAEDTAVYYCARGLYRWGQGTLVTVSSASTKGPSVFP VL: DIQMTQSPSSLSASVGDRVTIACRTSQNVNRYLNWYQHKLGQAPKLLIYGATILQSGVPSRFRGSGSGTDFILTITNLQPEDFAVYYCQQTYSPPLTFGQGTKAEFKGTVAAPSV | 2.7 |  | no binding (tested: 2 µg/ml) |
| A10 (antibody, human IgG4, V domains shown, whole human IgG4) VH: EVQLLESGGGLVQPGGSLRLSCAASGFTFSAYRMFWVRQAPGKGLEWVSSIWPSGGTTSYADSVKGRFTISRDNSKNTLYLQMNSLRAEDTAVYYCARDRGYDSSGYFDYWGQGTLVTVSS VL: QSELTQPPSASGTPGQRVTISCSGGSSNIGSNYVSWYQQLPGTAPKLLIYNNNQRPSGVPDRFSGSKSGTSASLAISGLRSEDEADYYCAAWDDSLSSAVFGGGTQLTVLG | 1.84 | no binding (tested: 2 µg/ml) | no binding (tested: 2 µg/ml) |
| B01 (antibody, human IgG4, V domains shown, whole human IgG4) VH: EVQLLESGGGLVQPGGSLRLSCAASGFTFSTYDMLWVRQAPGKGLEWVSSISPSGGSTSYADSVKGRFTISRDNSKNTLYLQLNSLRAEDTAVYYCAREKASDLSGTYSEALDHWGQGTLVTVSS VL: DIQMTQSPGTLSLSPGERATLSCRASQSVSSSYFAWYQQKPGQAPRLLIYDASSRATGIPDRFSGSGSGTDFTLTISRLEPEDFAVYYCQQYGSSPPMYTFGQGTKLEIKR | 2.3 | no binding (tested: 2 µg/ml) | no binding (tested: 2 µg/ml) |
| C12 (antibody, V domains shown, whole human IgG4) VH: EVQLLESGGGLVQPGGSLRLSCAASGFTFSAYNMMWVRQAPGKGLEWVSRIYPSGGYTLYADSVKGRFTISRDNSKNTLYLQMNSLRAEDTAVYYCARQKLMIRAVRPFDYWGQGTLVTVSS VL: QSELTQPPSVSVSPAQTASITCSGDKLGDKYACWYQQKPGQSPVLVIYEDTKRPSGIPERFSGSNSGNTATLTISGTQVMDEADYYCQVWDSSTAVFGGGTKLTVLG | 1.8 |  | no binding (tested: 2 µg/ml) |
| H6-orig (antibody, human IgG4, V domains shown, whole human IgG4) VH: EVQLLESGGGLVQPGGSLRLSCAASGFTFSQYWMNWVRQAPGKGLEWVSGIGPSGGITYYADSVKGRFTISRDNSKNTLYLQMNSLRAEDTAVYYCARGEEDGYNSDYWGQGTLVTVSS VL: QSELTQPPSASGSPGQSVTISCTGTSSDVGAYNYVSWYQQHPGKAPKLIIYEVNKRPSGVPDRFSASKSGNTASLTVSGLQAEDEADYYCNSYAGSNSLIFGGGTKLTVLG |  | no binding (tested: 2 µg/ml) | no binding (tested: 2 µg/ml) |
| D6-orig (antibody, human IgG4, V domains shown, whole human IgG4) VH: EVQLLESGGGLVQPGGSLRLSCAASGFTFSMYSMRWVRQAPGKGLEWVSSIYPSGGSTEYADSVKGRFTISRDNSKNTLYLQMNSLRAEDTAVYYCAREGGENDYWGQGTLVTVSS VL: DIQMTQSPLSLSASVGDRVAITCRASQSIDTYLNWYQQKPGKAPKLLIYAASKLEDGVPSRFSGSGTGTDFTLTIRSLQPEDFASYFCQQSYSSPGITFGPGTKVEIKR |  | no binding (tested: 2 µg/ml) |  |
| B02 (antibody, human IgG4, V domains shown, whole human IgG4) VH: EVQLLESGGGLVQPGGSLRLSCAASGFTFSDYFMKWVRQAPGKGLEWVSSIYPSGGPTKYADSVKGRFTISRDNSKNTLYLQMNSLRAEDTAVYYCARERSSGWYGYYYYGMDVWGQGTTVTVSS VL: DIQMTQSPSSLSASVGDRVAITCRASQSIDTYLNWYQQKPGKAPKLLIYAASKLEDGVPSRFSGSGTGTDFTLTIRSLQPEDFASYFCQQSYSSPGITFGPGTKVEIKR |  | no binding (tested: 2 µg/ml) | no binding (tested: 2 µg/ml) |
| B08 (antibody, human IgG4, V domains shown, whole human IgG4) VH: EVQLLESGGGLVQPGGSLRLSCAASGFTFSRYMMNWVRQAPGKGLEWVSVIWSSGGKTLYADSVKGRFTISRDNSKNTLYLQMKSLRAEDTAVYYCARGGYNNYYYSMDVWGQGTTVTVSS VL: QSELTQPHSVSGSPGKTVTISCTRSSGSIAGNYVQWYQQRPGSSPTTVIYEDNKRPSGVPDRFSGSIDSSSNSASLIISGLKTEDEADYYCHSYDTSNQVFGGGTKLTVLG | 3 | no binding (tested: 2 µg/ml) | no binding (tested: 2 µg/ml) |
| A12 (antibody, human IgG4, V domains shown, whole human IgG4) VH: EVQLLESGGGLVQPGGSLRLSCAASGFTFSAYWMDWVRQAPGKGLEWVSVIYPSGGSTNYADSVKGRFTISRDNSKNTLYLQMNSLRAEDTAVYYCAREGIAAAAPMDVWGKGTTVTVSS VL: DIQMTQSPGTLSLSPGERATLSCRASQSVSRSYLGWYQQKPGQAPRLLIYGASNRATGIPDRFSGSGSGTDFTLTISRLEPEDFAVYYCQQYGISPLTFGPGTKVDIKR | 1.8 | no binding (tested: 2 µg/ml) | no binding (tested: 2 µg/ml) |
| B04 (antibody, human IgG4, V domains shown, whole human IgG4) VH: EVQLLESGGGLVQPGGSLRLSCAASGFTFSFYWMMWVRQAPGKGLEWVSGISSSGGFTKYADSVKGRFTISRDNSKNTLYLQMNSLRAEDTAVYYCARETSRRAFDIWGQGTMVTVSS VL: DIQMTQSPSSVSASVGDRVTITCRASQGISKSLAWYQQKPGKAPKLLVYGAFSLESGVPSRFSGTGAGTDFILTISRLQPEDFATYYCQQANSFPLTFGGGTKVEIKR |  | no binding (tested: 2 µg/ml) | no binding (tested: 2 µg/ml) |
| B06 (antibody, human IgG4, V domains shown, whole human IgG4) VH: EVQLLESGGGLVQPGGSLRLSCAASGFTFSQYFMKWVRQAPGKGLEWVSSISPSGGLTQYADSVKGRFTISRDNSKNTLYLQMNSLRAEDTAVYYCARGGIEAPGSPSDYWGQGTLVTVSS VL: DIQMTQSPSFLSASVGDRVTITCRASQGISSYLAWYQQKPGKAPKLLIYAASTLQSGVPSRFSGSGSGTDFTLTISSLEPEDFATYYCQESYSTPFFTFGPGTKVDIRR | 2.1 | no binding (tested: 2 µg/ml) | no binding (tested: 2 µg/ml) |
| B07 (antibody, human IgG4, V domains shown, whole human IgG4) VH: EVQLLESGGGLVQPGGSLRLSCAASGFTFSQYQMIWVRQAPGKGLEWVSVIVPSGGITNYADSVKGRFTISRDNSKNTLYLQMNSLRAEDTAVYYCARGGVEAVDSSSPDYWGQGTLVTVSS VL: DIQMTQSPATLSLSPGERATLSCRASQSVSSYLAWYQQKPGQAPRLLIYDASNRATGIPARFSGSGSGTDFTLTISSLEPEDFAVYYCQQRSNWPRTFGGGTKVEIKR |  | no binding (tested: 2 µg/ml) | no binding (tested: 2 µg/ml) |
